Measurements reported in PMC8563704, “Gain-of-Function Properties of a Dynamin 2 Mutant Implicated in Charcot-Marie-Tooth Disease” (Frontiers in Cellular Neuroscience, 2021).
Where a chain is given by its changes, count along the chain named. Names may count otherwise.

B1: DNM2^ΔDEE-EGFP (enzyme, rat, UniProt P39052-1 1-870, looked up)
chain: MGNRGMEELIPLVNKLQDAFSSIGQSCHLDLPQIAVVGGQSAGKSSVLENFVGRDFLPRGSGIVTRRPLILQLIFSKTEYAEFLHCKSKKFTDFDEVRQEIEAETDRVTGTNKGISPVPINLRVYSPHVLNLTLIDLPGITKVPVGDQPPDIEYQIKDMILQFISRESSLILAVTPANMDLANSDALKLAKEVDPQGLRTIGVITKLDLMDEGTDARDVLENKLLPLRRGYIGVVNRSQKDIEGRKDIRAALAAERKFFLSHPAYRHMADRMGTPHLQKTLNQQLTNHIRESLPTLRSKLQSQLLSLEKEVEEYKNFRPDDPTRKTKALLQMVQQFGVDFEKRIEGSGDQVDTLELSGGARINRIFHERFPFELVKMEFDEKDLRREISYAIKNIHGVRTGLFTPDLAFEAIVKKQVVKLKEPCLKCVDLVIQELISTVRQCTSKLSSYPRLREETERIVTTYIREREGRTKDQILLLIDIEQSYINTNHEDFIGFANAQQRSTQLNKKRAIPNQGEILVIRRGWLTINNISLMKGGSKEYWFVLTAESLSWYKEKEKKYMLPLDNLKIRDVEKGFMSNKHVFAIFNTEQRNVYKDLRQIELACDSQEDVDSWKASFLRAGVYPEKDQAENEDGAQENTFSMDPQLERQVETIRNLVDSYVAIINKSIRDLMPKTIMHLMINNTKAFIHHELLAYLYSSADQSSLMEESAEQAQRRDDMLRMYHALKEALNIIGDISTSTVSTPVPPPVDDTWLQNTSSHSPTPQRRPVSSVHPPGRPPAVRGPTPGPPLIPMPVGATSSFSAPPIPSRPGPQNVFANNDPFSAPPQIPSRPARIPPGIPPGVPSRRAPAAPSRPTIIRPAEPSLLD
notes: dynamin 2, rat, isoform 1 (ba, IIBA), UniProtKB P39052-1, with the CMT-linked deletion of residues 555DEE557; Deletion introduced into the EGFP-tagged DNM2^WT template; also called EGFP-tagged DNM2^Δ ^DEE; source: expressed in U2OS cells (brightness analysis); NIH-3T3 cells (FLIM-FRET); not shown: EGFP, C-terminal, kept
B2: DNM2^WT-EGFP (enzyme, rat, UniProt P39052-1 1-870, looked up)
chain: MGNRGMEELIPLVNKLQDAFSSIGQSCHLDLPQIAVVGGQSAGKSSVLENFVGRDFLPRGSGIVTRRPLILQLIFSKTEYAEFLHCKSKKFTDFDEVRQEIEAETDRVTGTNKGISPVPINLRVYSPHVLNLTLIDLPGITKVPVGDQPPDIEYQIKDMILQFISRESSLILAVTPANMDLANSDALKLAKEVDPQGLRTIGVITKLDLMDEGTDARDVLENKLLPLRRGYIGVVNRSQKDIEGRKDIRAALAAERKFFLSHPAYRHMADRMGTPHLQKTLNQQLTNHIRESLPTLRSKLQSQLLSLEKEVEEYKNFRPDDPTRKTKALLQMVQQFGVDFEKRIEGSGDQVDTLELSGGARINRIFHERFPFELVKMEFDEKDLRREISYAIKNIHGVRTGLFTPDLAFEAIVKKQVVKLKEPCLKCVDLVIQELISTVRQCTSKLSSYPRLREETERIVTTYIREREGRTKDQILLLIDIEQSYINTNHEDFIGFANAQQRSTQLNKKRAIPNQGEILVIRRGWLTINNISLMKGGSKEYWFVLTAESLSWYKDEEEKEKKYMLPLDNLKIRDVEKGFMSNKHVFAIFNTEQRNVYKDLRQIELACDSQEDVDSWKASFLRAGVYPEKDQAENEDGAQENTFSMDPQLERQVETIRNLVDSYVAIINKSIRDLMPKTIMHLMINNTKAFIHHELLAYLYSSADQSSLMEESAEQAQRRDDMLRMYHALKEALNIIGDISTSTVSTPVPPPVDDTWLQNTSSHSPTPQRRPVSSVHPPGRPPAVRGPTPGPPLIPMPVGATSSFSAPPIPSRPGPQNVFANNDPFSAPPQIPSRPARIPPGIPPGVPSRRAPAAPSRPTIIRPAEPSLLD
notes: dynamin 2, rat, isoform 1 (ba, IIBA), UniProtKB P39052-1; The template cDNAs carried C-terminal His6 tags; also called EGFP-tagged DNM2^WT; source: expressed in U2OS cells (brightness analysis); NIH-3T3 cells (FLIM-FRET); not shown: EGFP, C-terminal, kept
B3: DNM2^K562E-EGFP (enzyme, rat, UniProt P39052-1 1-870, looked up)
chain: B2 chain with K562E
notes: dynamin 2, rat, isoform 1 (ba, IIBA), UniProtKB P39052-1, with the CMT-linked mutation K562E; The template cDNAs carried C-terminal His6 tags; also called EGFP-tagged DNM2^K562E; source: expressed in U2OS cells; not shown: EGFP, C-terminal, kept
B4: DNM2^A618T-EGFP (enzyme, rat, UniProt P39052-1 1-870, looked up)
chain: B2 chain with A618T
notes: dynamin 2, rat, isoform 1 (ba, IIBA), UniProtKB P39052-1, with the CNM-linked mutation A618T; The template cDNAs carried C-terminal His6 tags; also called EGFP-tagged DNM2^A618T; source: expressed in U2OS cells; not shown: EGFP, C-terminal, kept

Biological target: the molecule itself
Assay: fluorescence fluctuation spectroscopy (brightness analysis); EGFP-tagged dynamins in the cytosol of living U2OS cells, as a function of concentration; two-photon excitation at 1,000 nm; brightness normalised to monomeric EGFP

Protein	stoichiometry N
B1	~4
B2	~4
B3	~4
B4	20 to 24
